Experimental findings from article doi:10.1101/2023.03.06.531428 (bioRxiv, 2023) are described below.

B1: ADAMTS-7-FLAG (enzyme)
chain: APGPAPGRATEGRAALDIVHPVRVDAGGSFLSYELWPRALRKRDVSVRRDAPAFYELQYRGRELRFNLTANQHLLAPGFVSETRRRGGLGRAHIRAHTPACHLLGEVQDPELEGGLAAISACDGLKGVFQLSNEDYFIEPLDSAPARPGHAQPHVVYKRQAPERLAQRGDSSAPSTCGVQVYPELESRRERWEQRQQWRRPRLRRLHQRSVSKEKWVETLVVADAKMVEYHGQPQVESYVLTIMNMVAGLFHDPSIGNPIHITIVRLVLLEDEEEDLKITHHADNTLKSFCKWQKSINMKGDAHPLHHDTAILLTRKDLCAAMNRPCETLGLSHVAGMCQPHRSCSINEDTGLPLAFTVAHELGHSFGIQHDGSGNDCEPVGKRPFIMSPQLLYDAAPLTWSRCSRQYITRFLDRGWGLCLDDPPAKDIIDFPSVPPGVLYDVSHQCRLQYGAYSAFCEDMDNVCHTLWCSVGTTCHSKLDAAVDGTRCGENKWCLSGECVPVGFRPEAVDGGWSGWSAWSICSRSCGMGVQSAERQCTQPTPKYKGRYCVGERKRFRLCNLQACPAGRPSFRHVQCSHFDAMLYKGQLHTWVPVVNDVNPCELHCRPANEYFAEKLRDAVVDGTPCYQVRASRDLCINGICKNVGCDFEIDSGAMEDRCGVCHGNGSTCHTVSGTFEEAEGLGYVDVGLIPAGAREIRIQEVAEAANFLALRSEDPEKYFLNGGWTIQWNGDYQVAGTTFTYARRGNWENLTSPGPTKEPVWIQLLFQESNPGVHYEYTIHREAGGHDEVPPPVFSWHYGPWTKCTVTCGRGVQRQNVYCLERQAGPVDEEHCDPLGRPDDQQRKCSEQPCPARWWAGEWQLCSSSCGPGGLSRRAVLCIRSVGLDEQSALEPPACEHLPRPPTETPCNRHVPCPATWAVGNWSQCSVTCGEGTQRRNVLCTNDTGVPCDEAQQPASEVTCSLPLCRWPLGTLGPEGSGSGSSSHELFNEADFIPHHLAPRPSPASSPKPGTMGNAIEEEAPELDLPGPVFVDDFYYDYNFINFHEDLSYGPSEEPDLDLAGTGDRTPPPHSHPAAPSTGSPVPATEPPAAKEEGVLGPWSPSPWPSQAGRSPPPPSEQTPGNPLINFLPEEDTPIGAPDLGLPSLSWPRVSTDGLQTPATPESQNDFPVGKDSQSQLPPPWRDRTNEVFKDDEEPKGRGAPHLPPRPSSTLPPLSPVGSTHSSPSPDVAELWTGGTVAWEPALEGGLGPVDSELWPTVGVASLLPPPIAPLPEMKVRDSSLEPGTPSFPTPGPGSWDLQTVAVWGTFLPTTLTGLGHMPEPALNPGPKGQPESLSPEVPLSSRLLSTPAWDSPANSHRVPETQPLAPSLAEAGPPADPLVVRNAGWQAGNWSECSTTCGLGAVWRPVRCSSGRDEDCAPAGRPQPARRCHLRPCATWHSGNWSKCSRSCGGGSSVRDVQCVDTRDLRPLRPFHCQPGPAKPPAHRPCGAQPCLSWYTSSWRECSEACGGGEQQRLVTCPEPGLCEEALRPNTTRPCNTHPCTQWVVGPWGQCSGPCGGGVQRRLVKCVNTQTGLPEEDSDQCGHEAWPESSRPCGTEDCEPVEPPRCERDRLSFGFCETLRLLGRCQLPTIRTQCCRSCSPPSHGAPSRGHQRVARR
B2: untagged, recombinant TIMP-1 (natural protein)
chain: not shown

Experiment in all cases: AlphaScreen or HTRF
The target of experiment [1] is T1, TIMP-1-HA (human, UniProt P01033 24-207).
Experiment [2] concerns the target T1, TIMP-1-HA. The source holds these as a separate data set.
The target of the experiment “ADAMTS-7-FLAG” is B1.

T1 sequence (P01033 24-207): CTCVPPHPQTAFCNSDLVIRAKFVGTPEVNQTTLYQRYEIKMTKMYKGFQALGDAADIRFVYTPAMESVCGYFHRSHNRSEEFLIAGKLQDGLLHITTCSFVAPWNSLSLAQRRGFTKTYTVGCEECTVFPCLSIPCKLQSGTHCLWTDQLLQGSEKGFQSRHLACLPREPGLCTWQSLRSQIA

Turning to B1, in the experiment with TIMP-1-HA [1], the “FRET ratio (665/620)” value is 5480 665/620 ratio. Besides, in the experiment with TIMP-1-HA [2], the “FRET ratio (665/620) with 0 ng untagged TIMP-1” value is 4950 665/620 ratio.
With B2, in the experiment with ADAMTS-7-FLAG, the “FRET ratio (665/620) of ADAMTS-7-FLAG and TIMP-1-HA with 400 ng untagged TIMP-1” value was 4420 665/620 ratio; the “FRET ratio (665/620) of ADAMTS-7-FLAG and TIMP-1-HA with 800 ng untagged TIMP-1” value was 3570 665/620 ratio.
